One block for each binder: values may come before it.
Experiments:
[1] = biological target: T1, recombinant human ErbB2/Fc chimera (human, UniProt P04626 23-652); experiment: ELISA, coated ErbB2/Fc
T1 construct: bought from R&D Systems; also called rhErbB2-Fc; rhErb2-Fc; Fc part of the bought chimera not given; not described

[2] = biological target: T2, Epidermal Growth Factor Receptor 2 (HER2) (human, UniProt P04626 23-1255); experiment: flow cytometry on SKBR3 cells, periplasmic extract
T2 construct: whole, on cells; the cell line is named under assay; also called ErbB-2; ERBB2

[3] = biological target: T1, recombinant human ErbB2/Fc chimera; experiment: SPR (Biacore T100), Nanobody over immobilised rhErbB2-Fc
[4] = biological target: T3, extracellular domain of HER2 (HER2-ECD), Flag- and polyhistidine-tagged (human, UniProt P04626 23-652); experiment: SPR, 1000 nM HER2-ECD over immobilised Nanobody; row label prints 5F7, table title, text and FIG. 19 say 47D5
T3 construct: extracellular domain; made in HEK293T cells, purified by IMAC and SEC; also called ErbB2 ECD; not shown: N-terminal Flag tag after the Ig-kappa leader; C-terminal polyhistidine tag

[5] = biological target: T3, extracellular domain of HER2 …; experiment: SPR, 100 nM HER2-ECD over immobilised Nanobody; row label prints 5F7, table title, text and FIG. 19 say 47D5
[6] = biological target: T1, recombinant human ErbB2/Fc chimera; experiment: SPR (Biacore 3000), purified Nanobody over immobilised rhErbB2-Fc
[7] = biological target: T3, extracellular domain of HER2 …; experiment: SPR, 100 nM HER2-ECD over immobilised Nanobody (about 90 RU)
[8] = biological target: T3, extracellular domain of HER2 …; experiment: SPR, HER2-ECD over immobilised Nanobodies
[9] = biological target: T3, extracellular domain of HER2 …; experiment: SPR, 1000 nM HER2-ECD over immobilised Nanobody (about 90 RU)
[10] = biological target: T2, Epidermal Growth Factor Receptor 2 …; experiment: cell-based or functional assay
[11] = biological target: T1, recombinant human ErbB2/Fc chimera; experiment: SPR (Biacore 3000), periplasmic extract over immobilised rhErbB2-Fc

binding result [1]: binds
binding result [2]: binds
B1: 2A1 (VHH)
VHH: EVQLVESGGGLVQAGGSLRLSCVASKITFRRYIMDWYRQAPGKQRELVASINSDGSTGYTDSVKGRFTISRDNTKNTLDLQMNSLKPEDTAVYYCHGRWLEIGAEYWGQGTQVTVSS
notes: C-term myc-His6 tag

Kd [3]: 2.23 nM
koff [3]: 0.000862 s⁻¹
kon [3]: 386000 M⁻¹ s⁻¹
koff [4]: 0.00131 s⁻¹
koff [5]: 0.00256 s⁻¹
B2: 47D5 (VHH)
VHH: KVQLVESGGGLVQPGGSLRLSCAASGSIFGFNDMAWYRQAPGKQRELVALISRVGVTSSADSVKGRFTISRVNAKDTVYLQMNSLKPEDTAVYYCYMDQRLDGSTLAYWGQGTQVTVSS
notes: C-term myc-His6 tag; also called 47A8; 47A11

binding result [1]: binds
binding result [2]: binds
B3: 2G4 (VHH)
VHH: EVQLVESGGGLVQAGGSLRLSCAASGNIFSHNAMGWYRQAPGKQRELVTYITINGIANYVDSVKGRFTISRDNTKNTMYLQMVSLKPEDTAVYYCNVGGREYSGVYYYREYWGQGTQVTVSS
notes: C-term myc-His6 tag

koff [6]: ~0.0001 s⁻¹
B4: 27E7-35GS-2D3 (bispecific antibody)
chain: EVQLVESGGGLVQAGGSLRLSCAASGITFRRYDMGWYRQFPGKERELVATILSEGDTNYVDPVKGRFTISRDNAKNTVYLQMNDLKPEDTAVYYCNGVWRAIGRTYWGQGTQVTVSSGGGGSGGGGSGGGGSGGGGSGGGGSGGGGSGGGGSEVQLVESGGSLVQPGGSLRLSCAASGFTFDDYAMSWVRQVPGKGLEWVSSINWSGTHTDYADSVKGRFTISRNNANNTLYLQMNSLKSEDTAVYYCAKNWRDAGTTWFEKSGSAGQGTQVTVSS
notes: biparatopic Nanobody; C-term myc-His6 tag

Kd [3]: 1.77 nM
koff [3]: 0.00113 s⁻¹
kon [3]: 1.16e+06 M⁻¹ s⁻¹
koff [6]: ~0.001 s⁻¹
B5: DUMMY-35GS-2D3 (bispecific antibody)
chain: EVQLVESGGGLVQAGGSLRLSCAASGRTFRSYPMGWFRQAPGKEREFVASITGSGGSTYYADSVKGRFTISRDNAKNTVYLQMNSLRPEDTAVYSCAAYIRPDTYLSRDYRKYDYWGQGTQVTVSSGGGGSGGGGSGGGGSGGGGSGGGGSGGGGSGGGGSEVQLVESGGSLVQPGGSLRLSCAASGFTFDDYAMSWVRQVPGKGLEWVSSINWSGTHTDYADSVKGRFTISRNNANNTLYLQMNSLKSEDTAVYYCAKNWRDAGTTWFEKSGSAGQGTQVTVSS
notes: C-term myc-His6 tag; also called dummy-2D3; Dummy-2D3

koff [7]: 8.07e-05 s⁻¹
fold lower koff than on each of the 2D3 and 47D5 surfaces [8]: 25 fold
koff [9]: 5.45e-05 s⁻¹
B6: 2D3-35GS-47D5 (bispecific antibody)
chain: EVQLVESGGSLVQPGGSLRLSCAASGFTFDDYAMSWVRQVPGKGLEWVSSINWSGTHTDYADSVKGRFTISRNNANNTLYLQMNSLKSEDTAVYYCAKNWRDAGTTWFEKSGSAGQGTQVTVSSGGGGSGGGGSGGGGSGGGGSGGGGSGGGGSGGGGSEVQLVESGGGLVQPGGSLRLSCAASGSIFGFNDMAWYRQAPGKQRELVALISRVGVTSSADSVKGRFTISRVNAKDTVYLQMNSLKPEDTAVYYCYMDQRLDGSTLAYWGQGTQVTVSS
notes: biparatopic Nanobody; C-term myc-His6 tag; also called 2D3-47D5

inhibition of SKBR3 cell proliferation ([3H]-thymidine), 50 nM Nanobody [10]: ~30%
koff [11]: 0.00111 s⁻¹
B7: 2C3 (VHH)
VHH: EVQLVESGGGLVQPGGSLRLSCVASGFSLDDYGMTWVRQAPGKGLEWVSSINWSGTHTDYADSVKGRFTISRDNAKNTLFLQMNSLRSEDTAVYYCNQGWKIVPTDRTGHGTQVTVSS
notes: C-term myc-His6 tag

inhibition of SKBR3 cell proliferation ([3H]-thymidine), 50 nM Nanobody [10]: ~18%
koff [11]: 0.00142 s⁻¹
B8: 2A5 (VHH)
VHH: EVQLVESGGGLVQPGGSLRLSCATSGFTFDDYAMTWVRQAPGKGLEWVSSINWSGTHTDYTDSVKGRFTISRNNANNTLYLQMNSLKSEDTAVYYCAKNWGDAGTTWFEKSGSAGQGTQVTVSS
notes: C-term myc-His6 tag

inhibition of SKBR3 cell proliferation ([3H]-thymidine), 50 nM Nanobody [10]: ~30%
Kd [3]: 1.09 nM
koff [3]: 0.00148 s⁻¹
kon [3]: 1.36e+06 M⁻¹ s⁻¹
koff [6]: ~0.001 s⁻¹
koff [7]: 0.0021 s⁻¹
koff [9]: 0.00151 s⁻¹
B9: 2D3 (VHH)
VHH: EVQLVESGGSLVQPGGSLRLSCAASGFTFDDYAMSWVRQVPGKGLEWVSSINWSGTHTDYADSVKGRFTISRNNANNTLYLQMNSLKSEDTAVYYCAKNWRDAGTTWFEKSGSAGQGTQVTVSS
notes: C-term myc-His6 tag; also called NB-2D3; Nb-2D3

inhibition of SKBR3 cell proliferation ([3H]-thymidine), 50 nM Nanobody [10]: ~30%
koff [11]: 0.00205 s⁻¹
B10: 2A4 (VHH)
VHH: EVQLVESGGGLVQPGGSLRLSCAASGFIFDDYAMSWVRQAPGKGLEWVSAINWSGSHRNYADSVKGRFTISRDNAKKTVYLQMNSLQSEDTAVYYCGTGWQSTTKNQGYWGQGTQVTVSS
notes: C-term myc-His6 tag

binding result [1]: binds
binding result [2]: binds
B11: 2C5 (VHH)
VHH: EVQLVESGGGLVQAGGSLNLSCVASGIPFSTRTMAWYRQTPGKSRDWVATIRSGTPVYADSVKGRFTVSRDNAKNTLYLRMNSLKSEDSATYTCRAVNADIWGQGTQVTVSS
notes: C-term myc-His6 tag

From patent publication US20150232562A1 (Ablynx, published 2015)
